Results: paper doi:10.1101/2020.02.18.953711 (bioRxiv, 2020)

Molecular target: T1, CEPR2^KD-His (Arabidopsis thaliana, UniProt Q9C7T7 642-977)
T1 sequence (looked up): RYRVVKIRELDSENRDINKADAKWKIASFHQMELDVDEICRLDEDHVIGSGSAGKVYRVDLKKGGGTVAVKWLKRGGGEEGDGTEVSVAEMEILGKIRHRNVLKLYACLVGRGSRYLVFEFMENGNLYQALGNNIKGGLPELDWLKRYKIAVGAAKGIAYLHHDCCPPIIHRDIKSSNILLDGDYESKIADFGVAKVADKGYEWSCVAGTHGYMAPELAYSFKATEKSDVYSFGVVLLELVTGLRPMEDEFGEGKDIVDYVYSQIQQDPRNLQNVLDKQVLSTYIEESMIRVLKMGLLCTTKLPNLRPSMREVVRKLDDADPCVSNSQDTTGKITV
Assay: pull-down

B1: NRT1.2^loop-GST (domain or fragment, Arabidopsis thaliana, UniProt Q8H157 232-346, looked up)
chain: SGSRFYRNKIPCGSPLTTILKVLLAASVKCCSSGSSSNAVASMSVSPSNHCVSKGKKEVESQGELEKPRQEEALPPRAQLTNSLKVLNGAADEKPVHRLLECTVQQVEDVKIVLK
binding result: binds
